Reference: patent US20100041597A1 (published 2010)
Blank lines part the entries; values can stand above or below the binder they belong to. Where no end group is shown, it is not given here.

Experiments:
[1] = biological target: T1, PKC-βII (purified isoform) (Homo sapiens (Human), UniProt P05771 2-621); assay: competitive ELISA on purified PKC-βII vs anti-PKC-βII Ab; PRE 200 µM
T1 construct: also called PKC-beta II
Method: (§1) Greiner 96 well ELISA plates were coated with the appropriate PKC isoform diluted in PBSN (PBS with Calcium/Magnesium+0.05% Sodium azide w/w). 50 μL/well at 250 ng/mL was used. Control wells contained PBSN only. Plates were incubated overnight at 4° C.
(§2) The plates were washed 3 times with 200 μL of dH₂O per well, then 100 μL of blocking solution was added per well and the plate incubated for 1 h at 37° C. The washing steps with dH₂O were repeated and 50 μL of the appropriate PRE solution (PRE stock solution [20 mM in DMSO] diluted in PBSN) was added and the plate incubated for 1 h at room temperature.
(§3) 50 μL of 1:1000 dilution of Alkaline Phosphatase (AP) conjugated antibody (anti-rabbit for all except zeta, which was anti-goat) was then added and the plate incubated for 1 h at room temperature. Washing with dH₂O was then repeated. Finally, 100 μL of pNPP solution in pNPP buffer (2 mM MgCl₂, 100 mM Sodium bicarbonate in water, pH 9.8) was added to all wells and incubated for 8 minutes for α, βI, βII ε, and ζ, or for 15-20 mins for […] (until sufficient coloration is observed). The reaction was stopped by addition of Stop solution (2N NaOH) and the absorbance at 405 nm was read on a Galaxy Plate reader.

[2] = biological target: T1, PKC-βII (purified isoform); assay: competitive ELISA on purified PKC-βII vs anti-PKC-βII Ab; PRE 50 µM
Method: as §1, §2, §3

[3] = biological target: T2, PKC-α (endogenous, human cell lysates and cells) (human, UniProt P17252 2-672); assay: anti-PKC-α immunofluorescence, V5E-transfected IMR-32 cells loaded with PRE (label on PKC-α and V5E); control with endocytosis reagent 113
T2 construct: Endogenous protein of human cell lysates, on Western blot membranes (denatured) or in fixed cells; also called PKC-alpha; PKC-A
Excerpt: Neuroblastoma cells from the IMR-32 cell line were stably transfected with a vector containing the V5E sequence of PKC-α as outlined above in Example 13. The V5E sequence is part of the antigenic amino acid sequence that is used to raise the commercially available anti-PKC-α isoform-specific antibody.
The peptides PRE 1, 2, 3, 4, 5, 6, 7, 8, 9, 10, 11, 12 and 13 (see Table 3) were incorporated into the transfected IMR-32 cells via pinocytic endocytosis (Molecular Probes) according to the supplier's recommendations. Following fixation and permeabilization, PKC-α was detected using an Alexa fluor secondary antibody (as described above in Example 8).

[4] = biological target: T1, PKC-βII (purified isoform); assay: competitive ELISA on purified PKC-βII vs anti-PKC-βII Ab; PRE 100 µM
Method: as §1, §2, §3

[5] = biological target: T3, PKC-ε (endogenous, human cell extracts) (human, UniProt Q02156 1-737); assay: Protocol B blot competition, IMR-32 extract, competitor anti-PKC-ε Ab, Band 1; PRE 20 µg
T3 construct: Two bands on the blot, said to be alternate splicing variants; also called PKC-epsilon; PKC-ε Band 1
T3 sequence (looked up): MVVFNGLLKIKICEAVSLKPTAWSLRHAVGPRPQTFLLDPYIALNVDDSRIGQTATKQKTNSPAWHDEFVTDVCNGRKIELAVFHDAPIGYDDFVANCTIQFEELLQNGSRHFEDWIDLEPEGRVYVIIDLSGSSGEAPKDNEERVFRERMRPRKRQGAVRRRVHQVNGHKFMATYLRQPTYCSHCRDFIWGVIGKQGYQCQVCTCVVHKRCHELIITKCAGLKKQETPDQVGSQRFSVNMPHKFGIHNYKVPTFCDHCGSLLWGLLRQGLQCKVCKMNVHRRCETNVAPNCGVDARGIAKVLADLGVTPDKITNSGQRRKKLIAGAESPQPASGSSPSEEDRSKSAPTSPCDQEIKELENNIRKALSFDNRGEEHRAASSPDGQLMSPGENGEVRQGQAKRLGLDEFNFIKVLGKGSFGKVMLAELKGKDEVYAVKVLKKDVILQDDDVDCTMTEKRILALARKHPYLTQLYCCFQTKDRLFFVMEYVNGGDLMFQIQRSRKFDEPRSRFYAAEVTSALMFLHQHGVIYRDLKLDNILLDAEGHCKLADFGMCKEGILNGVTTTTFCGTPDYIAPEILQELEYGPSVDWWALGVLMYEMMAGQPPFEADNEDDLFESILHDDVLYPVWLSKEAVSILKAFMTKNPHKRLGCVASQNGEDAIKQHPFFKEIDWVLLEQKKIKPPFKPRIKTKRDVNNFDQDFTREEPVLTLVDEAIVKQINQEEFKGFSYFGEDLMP
Method: (§4) The ability of the peptides PRE 2 and PRE 3 (see Table 3) to interfere with the binding of a PKC-α-specific polyclonal antibody (Santa Cruz Biotechnology, Inc.) to PKC-α was determined using a modified version of the protocol outlined above in which the test peptide was added directly to the cell extract prior to electrophoresis at a concentration of either 5× or 15× the concentration of the protein applied to each well of the gel for the Western blots (20 μg).
(§5) Peptides PRE 2, PRE 3 and PRE 4 (see Table 3) were tested for their ability to interfere with the binding of isoform-specific polyclonal antibodies (Santa Cruz Biotechnology, Inc.) to PKC-ε using the general protocol described in Example 3. Two bands, representing alternate splicing variants of PKC-ε, were identified on the Western blot using this anti-PKC-ε antibody.

[6] = biological target: T3, PKC-ε (endogenous, human cell extracts); assay: Protocol B blot competition, IMR-32 extract, competitor anti-PKC-ε Ab, Band 2; PRE 50 µg
Method: as §4, §5

[7] = biological target: T3, PKC-ε (endogenous, human cell extracts); assay: Protocol B blot competition, IMR-32 extract, competitor anti-PKC-ε Ab, Band 2; PRE 20 µg
Method: as §4, §5

[8] = biological target: T3, PKC-ε (endogenous, human cell extracts); assay: Protocol B blot competition, IMR-32 extract, competitor anti-PKC-ε Ab, Band 1; PRE 50 µg
Method: as §4, §5

[9] = biological target: T3, PKC-ε (endogenous, human cell extracts); assay: Protocol B blot competition, IMR-32 extract, competitor anti-PKC-ε Ab, Band 1; PRE 100 µg
Method: as §4, §5

[10] = biological target: T3, PKC-ε (endogenous, human cell extracts); assay: Protocol B blot competition, IMR-32 extract, competitor anti-PKC-ε Ab, Band 2; PRE 100 µg
Method: as §4, §5

PKC-δ (purified isoform) [11] = biological target: T4, PKC-δ (purified isoform) (Homo sapiens (Human), UniProt Q05655 1-676); assay: competitive ELISA on purified PKC-δ vs anti-PKC-δ Ab; PRE 100 µM
T4 construct: also called PKC-delta; PKCdelta
Method: as §1, §2, §3

PKC-δ (purified isoform) [12] = biological target: T4, PKC-δ (purified isoform); assay: competitive ELISA on purified PKC-δ vs anti-PKC-δ Ab; PRE 50 µM
Method: as §1, §2, §3

PKC-δ (purified isoform) [13] = biological target: T4, PKC-δ (purified isoform); assay: competitive ELISA on purified PKC-δ vs anti-PKC-δ Ab; PRE 200 µM
Method: as §1, §2, §3

PKC-ζ (purified isoform) [14] = biological target: T5, PKC-ζ (purified isoform) (Homo sapiens (Human), UniProt Q05513 1-592); assay: competitive ELISA on purified PKC-ζ vs anti-PKC-ζ Ab; PRE 100 µM
T5 construct: also called PKC-zeta; PKCzeta
T5 sequence: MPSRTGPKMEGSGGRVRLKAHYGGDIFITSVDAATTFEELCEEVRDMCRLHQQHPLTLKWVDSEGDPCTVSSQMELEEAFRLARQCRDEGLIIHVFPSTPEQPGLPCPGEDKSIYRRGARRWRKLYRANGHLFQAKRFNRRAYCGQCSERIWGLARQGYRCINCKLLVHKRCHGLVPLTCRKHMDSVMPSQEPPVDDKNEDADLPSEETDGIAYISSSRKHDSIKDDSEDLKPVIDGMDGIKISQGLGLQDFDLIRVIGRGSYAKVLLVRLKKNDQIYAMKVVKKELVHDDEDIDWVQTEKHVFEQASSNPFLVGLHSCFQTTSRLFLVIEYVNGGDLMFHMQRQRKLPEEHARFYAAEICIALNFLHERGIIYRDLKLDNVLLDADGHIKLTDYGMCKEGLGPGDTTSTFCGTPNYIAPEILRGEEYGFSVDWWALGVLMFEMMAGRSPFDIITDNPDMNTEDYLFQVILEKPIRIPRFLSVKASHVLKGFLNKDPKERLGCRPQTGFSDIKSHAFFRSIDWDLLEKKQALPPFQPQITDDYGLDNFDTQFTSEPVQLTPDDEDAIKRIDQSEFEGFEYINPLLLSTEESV
Method: as §1, §2, §3

PKC-ζ (purified isoform) [15] = biological target: T5, PKC-ζ (purified isoform); assay: competitive ELISA on purified PKC-ζ vs anti-PKC-ζ Ab; PRE 50 µM
Method: as §1, §2, §3

PKC-ζ (purified isoform) [16] = biological target: T5, PKC-ζ (purified isoform); assay: summary grade, purified isoform ELISA
PKC-ζ (purified isoform) [17] = biological target: T5, PKC-ζ (purified isoform); assay: competitive ELISA on purified PKC-ζ vs anti-PKC-ζ Ab; PRE 200 µM
Method: as §1, §2, §3

T4 sequence (Q05655 whole entry, stated change not applied, canonical isoform): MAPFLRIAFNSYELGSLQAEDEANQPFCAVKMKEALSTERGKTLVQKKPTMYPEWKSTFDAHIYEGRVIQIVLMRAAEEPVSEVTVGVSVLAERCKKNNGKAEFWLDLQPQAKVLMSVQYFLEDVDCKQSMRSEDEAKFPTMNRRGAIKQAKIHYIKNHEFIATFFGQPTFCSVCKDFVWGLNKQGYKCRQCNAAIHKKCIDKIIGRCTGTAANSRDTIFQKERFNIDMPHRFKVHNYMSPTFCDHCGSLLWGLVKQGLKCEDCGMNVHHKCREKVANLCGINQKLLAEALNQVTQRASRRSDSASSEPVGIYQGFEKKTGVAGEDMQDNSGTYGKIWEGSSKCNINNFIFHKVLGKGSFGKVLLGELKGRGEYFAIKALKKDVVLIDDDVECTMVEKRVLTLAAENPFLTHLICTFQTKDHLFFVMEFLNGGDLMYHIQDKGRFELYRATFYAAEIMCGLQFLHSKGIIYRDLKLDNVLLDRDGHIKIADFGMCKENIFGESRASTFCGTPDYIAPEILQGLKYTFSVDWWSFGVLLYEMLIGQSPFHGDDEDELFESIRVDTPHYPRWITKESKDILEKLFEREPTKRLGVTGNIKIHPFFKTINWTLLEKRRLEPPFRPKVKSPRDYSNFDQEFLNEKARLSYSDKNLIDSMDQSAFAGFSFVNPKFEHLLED
T1 sequence (P05771 other isoform, or with tags, fused parts or gaps limits assumed): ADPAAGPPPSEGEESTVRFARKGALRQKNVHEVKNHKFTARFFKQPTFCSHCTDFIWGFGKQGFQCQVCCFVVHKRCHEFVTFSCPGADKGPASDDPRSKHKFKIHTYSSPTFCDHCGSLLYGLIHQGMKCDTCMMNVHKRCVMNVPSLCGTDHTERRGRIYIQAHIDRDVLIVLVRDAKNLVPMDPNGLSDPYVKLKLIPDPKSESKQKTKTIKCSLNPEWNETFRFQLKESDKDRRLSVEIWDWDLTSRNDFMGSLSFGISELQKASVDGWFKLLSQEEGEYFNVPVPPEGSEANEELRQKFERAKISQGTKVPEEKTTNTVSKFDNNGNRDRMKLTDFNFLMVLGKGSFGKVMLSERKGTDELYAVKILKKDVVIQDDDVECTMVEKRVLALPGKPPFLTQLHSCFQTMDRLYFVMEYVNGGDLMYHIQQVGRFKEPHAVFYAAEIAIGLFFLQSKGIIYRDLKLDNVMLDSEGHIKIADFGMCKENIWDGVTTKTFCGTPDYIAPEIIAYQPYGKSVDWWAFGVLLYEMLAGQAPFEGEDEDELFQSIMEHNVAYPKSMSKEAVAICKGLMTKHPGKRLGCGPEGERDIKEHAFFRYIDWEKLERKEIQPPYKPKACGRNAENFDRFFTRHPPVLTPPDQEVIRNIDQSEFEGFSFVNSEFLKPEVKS

binding capacity (%) [1]: 0%
binding capacity (%) [2]: 0%
Relative Fluorescence Intensity [3]: 122
binding capacity (%) [4]: 0%
B1: PRE 10 (peptide)
peptide: Ac-ISIGILNQADK-NH2
notes: Synthetic peptide; also called peptide PRE 10

band intensity [5]: 323
inhibition (%) [5]: 23.4%
relative intensity (%) [5]: 76.6%
band intensity [6]: 0
inhibition (%) [6]: 100%
relative intensity (%) [6]: 0%
band intensity [7]: 160
inhibition (%) [7]: 38.6%
relative intensity (%) [7]: 61.4%
band intensity [8]: 0
inhibition (%) [8]: 100%
relative intensity (%) [8]: 0%
band intensity [9]: 0
inhibition (%) [9]: 100%
relative intensity (%) [9]: 0%
band intensity [10]: 0
inhibition (%) [10]: 100%
relative intensity (%) [10]: 0%
B2: PRE 2 (peptide)
peptide: KDAQNLIGISL-NH2
notes: Synthetic peptide; also called peptide PRE 2

binding capacity (%) (PKC-δ (purified isoform) [11]): 3.38%
binding capacity (%) (PKC-δ (purified isoform) [12]): 6.96%
binding capacity (%) (PKC-δ (purified isoform) [13]): 6.68%
Relative Fluorescence Intensity [3]: 81
binding capacity (%) (PKC-ζ (purified isoform) [14]): 0%
binding capacity (%) (PKC-ζ (purified isoform) [15]): 0%
binding result (PKC-ζ (purified isoform) [16]): no binding (tested: 200 µM)
binding capacity (%) (PKC-ζ (purified isoform) [17]): 0%
B3: PRE 8 (peptide)
peptide: ILEDKGGDAQNLIGISI
notes: Synthetic peptide; termini given free; also called peptide PRE 8

binding capacity (%) (PKC-δ (purified isoform) [11]): 0%
binding capacity (%) (PKC-δ (purified isoform) [12]): 0.2%
binding capacity (%) (PKC-δ (purified isoform) [13]): 4.31%
Relative Fluorescence Intensity [3]: 124
B4: PRE 5 (peptide)
peptide: Ac-AKGIQEVKGGKDAQNLIGISI-NH2
notes: Synthetic peptide; also called peptide PRE 5
